Source: IntAct's records for PubMed 17196169

B1: Programmed cell death protein 6 (Homo sapiens), O75340 (parent)
chain: MAAYSYRPGPGAGPGPAAGAALPDQSFLWNVFQRVDKDRSGVISDTELQQALSNGTWTPFNPVTVRSIISMFDRENKAGVNFSEFTGVWKYITDWQNVFRTYDRDNSGMIDKNELKQALSGFGYRLSDQFHDILIRKFDRQGRGQIAFDDFIQGCIVLQRLTDIFRRYDTDQDGWIQVSYEQYLSMVFSIV
partner: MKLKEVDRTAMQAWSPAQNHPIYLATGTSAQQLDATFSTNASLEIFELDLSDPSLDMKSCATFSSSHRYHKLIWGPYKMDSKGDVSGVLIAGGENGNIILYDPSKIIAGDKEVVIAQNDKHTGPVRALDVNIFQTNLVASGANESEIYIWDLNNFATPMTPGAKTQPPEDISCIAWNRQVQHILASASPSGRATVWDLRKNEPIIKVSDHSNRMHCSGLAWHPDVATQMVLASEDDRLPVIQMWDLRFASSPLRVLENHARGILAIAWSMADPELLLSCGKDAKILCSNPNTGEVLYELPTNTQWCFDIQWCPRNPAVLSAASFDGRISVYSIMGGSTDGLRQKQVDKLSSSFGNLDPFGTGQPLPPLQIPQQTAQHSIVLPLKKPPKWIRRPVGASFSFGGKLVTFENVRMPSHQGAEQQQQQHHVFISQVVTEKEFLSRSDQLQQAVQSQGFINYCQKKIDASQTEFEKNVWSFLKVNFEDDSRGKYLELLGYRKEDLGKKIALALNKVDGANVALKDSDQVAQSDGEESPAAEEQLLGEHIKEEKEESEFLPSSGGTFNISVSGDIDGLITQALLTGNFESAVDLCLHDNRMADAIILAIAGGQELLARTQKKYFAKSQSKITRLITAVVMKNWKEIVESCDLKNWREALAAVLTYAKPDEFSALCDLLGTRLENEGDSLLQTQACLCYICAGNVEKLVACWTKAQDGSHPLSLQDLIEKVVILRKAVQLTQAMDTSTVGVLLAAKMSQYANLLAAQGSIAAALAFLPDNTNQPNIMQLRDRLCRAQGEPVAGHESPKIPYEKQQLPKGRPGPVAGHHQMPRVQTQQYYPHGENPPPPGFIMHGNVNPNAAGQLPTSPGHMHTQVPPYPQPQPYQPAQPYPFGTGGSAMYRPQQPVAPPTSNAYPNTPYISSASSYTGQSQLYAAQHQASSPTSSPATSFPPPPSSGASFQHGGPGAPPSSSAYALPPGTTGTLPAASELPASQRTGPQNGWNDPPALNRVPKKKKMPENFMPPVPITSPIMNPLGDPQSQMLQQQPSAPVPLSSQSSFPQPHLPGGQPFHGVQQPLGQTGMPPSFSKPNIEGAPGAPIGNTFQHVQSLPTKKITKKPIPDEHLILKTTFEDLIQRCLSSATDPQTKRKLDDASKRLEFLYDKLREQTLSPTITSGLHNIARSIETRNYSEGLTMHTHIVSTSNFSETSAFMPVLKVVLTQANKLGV

Variants of: B1
Details: with sc31a_human SEC31A

**Q.** Which “effect of a mutation on the interaction” value does the source give for E47A;E114A here?
**A.** decreasing interaction
